Results reported in patent publication US20110256153A1 (IMMUNOGEN, published 2011).
One block for each binder: values may come before it.

Experiments:
human CD37 [1] = molecular target: T1, human CD37 (human, UniProt P11049 1-278); test: cell-based or functional assay
T1 sequence: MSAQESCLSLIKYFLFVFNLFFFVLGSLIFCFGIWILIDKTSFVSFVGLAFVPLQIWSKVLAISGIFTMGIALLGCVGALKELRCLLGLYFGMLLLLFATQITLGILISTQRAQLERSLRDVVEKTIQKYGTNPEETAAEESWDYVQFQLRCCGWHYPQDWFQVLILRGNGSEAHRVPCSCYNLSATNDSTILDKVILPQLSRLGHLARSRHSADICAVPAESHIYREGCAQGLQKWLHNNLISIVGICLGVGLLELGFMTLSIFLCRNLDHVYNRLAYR

human CD37 [2] = molecular target: T1, human CD37; test: flow cytometry titration on BJAB cells (FIG. 20A); apparent Kd
human CD37 [3] = molecular target: T1, human CD37; test: flow cytometry titration on BJAB cells; apparent Kd
Protocol: (§1) Binding specificity was tested by flow cytometry using purified antibodies. […] All murine antibodies were incubated for 3 h with either CD37-expressing 300-19 cells or the non-transfected 300-19 cells (1×10⁵ cells per sample) in 100 μL FACS buffer (RPMI-1640 medium supplemented with 2% normal goat serum). Then, the cells were pelleted, washed, and incubated for 1 h with 100 μL of FITC-conjugated goat anti-mouse IgG-antibody (Jackson Laboratory, 6 μg/mL in FACS buffer). The cells were pelleted again, washed with FACS buffer and resuspended in 200 μL of PBS containing 1% formaldehyde. Samples were acquired using a FACSCalibur flow cytometer with the HTS multiwell sampler or a FACS array flow cytometer and analyzed using CellQuest Pro (all from BD Biosciences, San Diego, US).
The humanized antibodies huCD37-38, huCD37-50, huCD37-51, huCD37-56 and chCD37-57 were assayed for their binding affinity to BJAB cells in comparison to their murine counterparts. Flow cytometry binding assays were carried out using secondary FITC-conjugated goat-anti-murine and -anti-human antibodies, analyzed as described in Example 2 and dose-response curves were generated by non-linear regression for each antibody. The value for the apparent dissociation constant (Kd) of each antibody was calculated using GraphPad Prism v4 (GraphPad software, San Diego, Calif.).

macaque CD37 [4] = molecular target: T2, macaque CD37 (macaque, UniProt P11049 1-277 (human entry)); test: flow cytometry, 300-19/CD37mac cells
T2 construct: Expressed on 300-19 cells transfected with pSRa-CD37mac (300-19/CD37mac cells); also called macaca CD37; macaque derived CD37 antigen
T2 chain: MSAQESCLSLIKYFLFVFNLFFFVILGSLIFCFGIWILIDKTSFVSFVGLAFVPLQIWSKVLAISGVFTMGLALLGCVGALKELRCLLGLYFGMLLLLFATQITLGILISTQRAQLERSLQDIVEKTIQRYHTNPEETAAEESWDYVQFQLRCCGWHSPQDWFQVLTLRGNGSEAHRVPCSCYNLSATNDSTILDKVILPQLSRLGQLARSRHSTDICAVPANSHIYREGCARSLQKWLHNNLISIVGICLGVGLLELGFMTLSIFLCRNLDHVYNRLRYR
Protocol: as §1
The murine antibodies muCD37-3, muCD37-12, muCD37-38, […], muCD37-51, muCD37-56 and muCD37-57 were assayed for their ability to bind to 300-19/CD37mac cells expressing macaque CD37. Flow cytometry binding assays were carried out using secondary FITC-conjugated goat-anti-murine or goat-anti-human antibodies, analyzed as described in Example 2. Binding was compared to the previously described anti-CD37 antibody WR17 and the anti-CD37 SMIP TRU-016. […] In contrast, muCD37-3, muCD37-12, the previously described anti-CD37 antibody WR17 and the anti-CD37 SMIP TRU-016 are unable to bind the macaque derived CD37 antigen.

human CD37 [5] = molecular target: T1, human CD37; test: flow cytometry titration; apparent Kd; cells not named
human CD37 [6] = molecular target: T1, human CD37; test: flow cytometry titration on Ramos cells; apparent Kd
Protocol: as §1
The chimeric antibodies chCD37-3 and chCD37-12 were assayed for their binding affinity to Ramos cells in comparison to their murine counterparts. Flow cytometry binding assays using Ramos cells and muCD37-3, chCD37-3, muCD37-12 and chCD37-12 antibodies were carried out and analyzed as described in Example 2 using secondary FITC-conjugated goat-anti-murine and -anti-human antibodies. FIG. 9A depicts the dose-response curves generated by non-linear regression for each antibody. The value for the apparent dissociation constant (Kd) of each antibody was calculated using GraphPad Prism v4 (GraphPad software, San Diego, Calif.).

human CD37 [7] = molecular target: T1, human CD37; test: competition flow cytometry on BJAB cells; competitor PE-labeled muCD37-3 (1 nM)
Protocol: Flow cytometry binding assays using BJAB cells and a competitive binding format were used to evaluate binding affinity of chimeric and humanized versions of CD37-3. BJAB cells were incubated with a 1 nM concentration of PE-labeled muCD37-3 antibody and competition was measured by adding varying amounts of muCD37-3, chCD37-3, huCD37-3v1.0 or huCD37-3v1.01. The samples were incubated for 3 hrs at 4° C. Then, the cells were pelleted, washed with FACS buffer and resuspended in 200 μL of PBS containing 1% formaldehyde. Samples were acquired using a FACSCalibur flow cytometer with the HTS multiwell sampler and analyzed using CellQuest Pro (all from BD Biosciences, San Diego, US). The resulting mean PE fluorescence was plotted against the amount of competing antibody used in a semi-log plot. FIG. 9B depicts the dose-response curves generated by non-linear regression for each antibody. The value for the apparent dissociation constant (Kd) of each antibody was calculated using GraphPad Prism v4 (GraphPad software, San Diego, Calif.).

human CD37 [8] = molecular target: T1, human CD37; test: flow cytometry titration on BJAB cells (FIG. 20B); apparent Kd
macaque CD37 [9] = molecular target: T2, macaque CD37; test: flow cytometry titration on 300-19/CD37mac cells; apparent Kd
Protocol: as §1
Flow cytometry binding assays were carried out using secondary FITC-conjugated goat-anti-human antibodies, analyzed as described in Example 2 and dose-response curves were generated by non-linear regression for each antibody. The value for the apparent dissociation constant (Kd) of each antibody was calculated using GraphPad Prism v4 (GraphPad software, San Diego, Calif.).

Kd (human CD37 [2]): 0.89 nM
B1: huCD37-3-sulfo-mal-DM4 (antibody, human IgG1, kappa, V domains shown)
VH: QVQVQESGPGLVAPSQTLSITCTVSGFSLTTSGVSWVRQPPGKGLEWLGVIWGDGSTNYHPSLKSRLSIKKDHSKSQVFLKLNSLTAADTATYYCAKGGYSLAHWGQGTLVTVSS
VL: DIQMTQSPSSLSVSVGERVTITCRASENIRSNLAWYQQKPGKSPKLLVNVATNLADGVPSRFSGSGSGTDYSLKINSLQPEDFGTYYCQHYWGTTWTFGQGTKLEIKR
modifications: DM4 attached through 3-sulfo-mal linker; attachment residues not stated; 3.5-4 DM4 per antibody
notes: heavy chain version as for huCD37-3, see its note
EC50 of in vitro cytotoxicity, BJAB cells (human CD37 [1]): 0.11 nM
EC50 of in vitro cytotoxicity, Daudi cells (human CD37 [1]): 0.14 nM
EC50 of in vitro cytotoxicity, Granta-519 cells (human CD37 [1]): 0.088 nM

Kd (human CD37 [3]): 0.2 nM
binding result (macaque CD37 [4]): no binding
Kd (human CD37 [2]): 0.26 nM
Kd (human CD37 [5]): 0.28 nM
B2: huCD37-3 (antibody, human IgG1, kappa, V domains shown)
VH: B1 VH
VL: B1 VL
notes: also called huCD37-3 Ab; huCD37-3 antibody

Kd (human CD37 [6]): 0.8 nM
EC50 (human CD37 [7]): 0.7 nM
B3: chCD37-3 (antibody, human IgG1, kappa)
heavy: not shown
light: DIQMTQSPASLSVSVGETVTITCRASENIRSNLAWYQQKQGKSPQLLVNVATNLADGVPSRFSGSGSGTQYSLKINSLQSEDFGTYYCQHYWGTTWTFGGGTKLEIKRTVAAPSVFIFPPSDEQLKSGTASVVCLLNNFYPREAKVQWKVDNALQSGNSQESVTEQDSKDSTYSLSSTLTLSKADYEKHKVYACEVTHQGLSSPVTKSFNRGEC
notes: Chimeric antibody, murine variable regions with human constant regions

Kd (human CD37 [8]): 1.2 nM
B4: huCD37-38-SMCC-DM1 (antibody, human IgG1, kappa, V domains shown)
VH: QVQLQESGPGLVKPSQSLSLTCTVSGYSITSGFGWHWIRQFPGKGLEWMAYILYSGGTDYNPSLKSRISITRDTSKNQFFLRLSSVTAADTATYYCARGYYGYGAWFVYWGQGTLVTVSS
VL: DIVLTQSPASMSASPGERVTMTCSASSSVTYMHWYQQKPGTSPKRWIYDTSKLASGVPARFSGSGSGTSYSLTISSMEAEDAATYYCQQWISNPPTFGGGTKLEIKR
modifications: DM1 attached through SMCC linker; attachment residues and load not stated
notes: SMCC-DM1 conjugate of huCD37-38
EC50 of in vitro cytotoxicity, WST-8 assay, Daudi cells (human CD37 [1]): 0.098 nM
EC50 of in vitro cytotoxicity, WST-8 assay, Granta-519 cells (human CD37 [1]): 0.074 nM

Kd (human CD37 [3]): 0.3 nM
Kd (human CD37 [8]): 1.04 nM
Kd (macaque CD37 [9]): 1.1 nM
B5: huCD37-38 (antibody, human IgG1, kappa, V domains shown)
VH: B4 VH
VL: B4 VL
notes: Humanized antibody
